Reference: article PMC8298264, “Function of cofactor Akirin2 in the regulation of gene expression in model human neutrophil-like HL60 cells” (Bioscience Reports, 2021)

Test system: human HL60 cells
Assay: SWATH-MS proteomics, differential protein representation, akirin2 KO vs WT HL60 cells
Format: cell-based
Conditions: akirin2 KO vs WT HL60 cells; sheet "Under-represented in KO"
Method in brief: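 WT and akirin2 KO HL60 lysates (150 µg, n=3 biological replicates) were FASP trypsin-digested and desalted. A spectral library was built by IDA from 3 µg digests, then 5 µg per sample went to variable-window SWATH DIA over a 120-min 5–30% acetonitrile gradient. Identifications were accepted at 1% global FDR, with total-area-sum normalization.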

Row | Molecule | Fold Change | Log (Fold Change)
1 | sp¦P46977¦STT3A_HUMAN (protein, UniProt P46977 1-705, looked up) Dolichyl-diphosphooligosacchar …: MTKFGFLRLSYEKQDTLLKLLILSMAAVLSFSTRLFAVLRFESVIHEFDPYFNYRTTRFLAEEGFYKFHNWFDDRAWYPLGRIIGGTIYPGLMITSAAIYHVLHFFHITIDIRNVCVFLAPLFSSFTTIVTYHLTKELKDAGAGLLAAAMIAVVPGYISRSVAGSYDNEGIAIFCMLLTYYMWIKAVKTGSICWAAKCALAYFYMVSSWGGYVFLINLIPLHVLVLMLTGRFSHRIYVAYCTVYCLGTILSMQISFVGFQPVLSSEHMAAFGVFGLCQIHAFVDYLRSKLNPQQFEVLFRSVISLVGFVLLTVGALLMLTGKISPWTGRFYSLLDPSYAKNNIPIIASVSEHQPTTWSSYYFDLQLLVFMFPVGLYYCFSNLSDARIFIIMYGVTSMYFSAVMVRLMLVLAPVMCILSGIGVSQVLSTYMKNLDISRPDKKSKKQQDSTYPIKNEVASGMILVMAFFLITYTFHSTWVTSEAYSSPSIVLSARGGDGSRIIFDDFREAYYWLRHNTPEDAKVMSWWDYGYQITAMANRTILVDNNTWNNTHISRVGQAMASTEEKAYEIMRELDVSYVLVIFGGLTGYSSDDINKFLWMVRIGGSTDTGKHIKENDYYTPTGEFRVDREGSPVLLNCLMYKMCYYRFGQVYTEAKRPPGFDRVRNAEIGNKDFELDVLEEAYTTEHWLVRIYKVKDLDNRGLSRT | 0.6295 | -0.201
2 | sp¦P57740¦NU107_HUMAN (protein, UniProt P57740 1-925, looked up) Nuclear pore complex protein …: MDRSGFGEISSPVIREAEVTRTARKQSAQKRVLLQASQDENFGNTTPRNQVIPRTPSSFRQPFTPTSRSLLRQPDISCILGTGGKSPRLTQSSGFFGNLSMVTNLDDSNWAAAFSSQRSGLFTNTEPHSITEDVTISAVMLREDDPGEAASMSMFSDFLQSFLKHSSSTVFDLVEEYENICGSQVNILSKIVSRATPGLQKFSKTASMLWLLQQEMVTWRLLASLYRDRIQSALEEESVFAVTAVNASEKTVVEALFQRDSLVRQSQLVVDWLESIAKDEIGEFSDNIEFYAKSVYWENTLHTLKQRQLTSYVGSVRPLVTELDPDAPIRQKMPLDDLDREDEVRLLKYLFTLIRAGMTEEAQRLCKRCGQAWRAATLEGWKLYHDPNVNGGTELEPVEGNPYRRIWKISCWRMAEDELFNRYERAIYAALSGNLKQLLPVCDTWEDTVWAYFRVMVDSLVEQEIQTSVATLDETEELPREYLGANWTLEKVFEELQATDKKRVLEENQEHYHIVQKFLILGDIDGLMDEFSKWLSKSRNNLPGHLLRFMTHLILFFRTLGLQTKEEVSIEVLKTYIQLLIREKHTNLIAFYTCHLPQDLAVAQYALFLESVTEFEQRHHCLELAKEADLDVATITKTVVENIRKKDNGEFSHHDLAPALDTGTTEEDRLKIDVIDWLVFDPAQRAEALKQGNAIMRKFLASKKHEAAKEVFVKIPQDSIAEIYNQCEEQGMESPLPAEDDNAIREHLCIRAYLEAHETFNEWFKHMNSVPQKPALIPQPTFTEKVAHEHKEKKYEMDFGIWKGHLDALTADVKEKMYNVLLFVDGGWMVDVREDAKEDHERTHQMVLLRKLCLPMLCFLLHTILHSTGQYQECLQLADMVSSERHKLYLVFSKEELRKLLQKLRESSLMLLDQGLDPLGYEIQL | 0.6316 | -0.1995
3 | sp¦P23381¦SYWC_HUMAN (protein, UniProt P23381 2-471, looked up) Tryptophan--tRNA ligase, …: PNSEPASLLELFNSIATQGELVRSLKAGNASKDEIDSAVKMLVSLKMSYKAAAGEDYKADCPPGNPAPTSNHGPDATEAEEDFVDPWTVQTSSAKGIDYDKLIVRFGSSKIDKELINRIERATGQRPHHFLRRGIFFSHRDMNQVLDAYENKKPFYLYTGRGPSSEAMHVGHLIPFIFTKWLQDVFNVPLVIQMTDDEKYLWKDLTLDQAYSYAVENAKDIIACGFDINKTFIFSDLDYMGMSSGFYKNVVKIQKHVTFNQVKGIFGFTDSDCIGKISFPAIQAAPSFSNSFPQIFRDRTDIQCLIPCAIDQDPYFRMTRDVAPRIGYPKPALLHSTFFPALQGAQTKMSASDPNSSIFLTDTAKQIKTKVNKHAFSGGRDTIEEHRQFGGNCDVDVSFMYLTFFLEDDDKLEQIRKDYTSGAMLTGELKKALIEVLQPLIAEHQARRKEVTDEIVKEFMTPRKLSFDFQ | 0.6341 | -0.1979
4 | sp¦Q9H845¦ACAD9_HUMAN (protein, UniProt Q9H845 38-621, looked up) Complex I assembly factor …: AFAKELFLGKIKKKEVFPFPEVSQDELNEINQFLGPVEKFFTEEVDSRKIDQEGKIPDETLEKLKSLGLFGLQVPEEYGGLGFSNTMYSRLGEIISMDGSITVTLAAHQAIGLKGIILAGTEEQKAKYLPKLASGEHIAAFCLTEPASGSDAASIRSRATLSEDKKHYILNGSKVWITNGGLANIFTVFAKTEVVDSDGSVKDKITAFIVERDFGGVTNGKPEDKLGIRGSNTCEVHFENTKIPVENILGEVGDGFKVAMNILNSGRFSMGSVVAGLLKRLIEMTAEYACTRKQFNKRLSEFGLIQEKFALMAQKAYVMESMTYLTAGMLDQPGFPDCSIEAAMVKVFSSEAAWQCVSEALQILGGLGYTRDYPYERILRDTRILLIFEGTNEILRMYIALTGLQHAGRILTTRIHELKQAKVSTVMDTVGRRLRDSLGRTVDLGLTGNHGVVHPSLADSANKFEENTYCFGRTVETLLLRFGKTIMEEQLVLKRVANILINLYGMTAVLSRASRSIRIGLRNHDHEVLLANTFCVEAYLQNLFSLSQLDKYAPENLDEQIKKVSQQILEKRAYICAHPLDRTC | 0.6441 | -0.191
5 | sp¦P41252¦SYIC_HUMAN (protein, UniProt P41252 1-1262, looked up) Isoleucine--tRNA ligase, …: MLQQVPENINFPAEEEKILEFWTEFNCFQECLKQSKHKPKFTFYDGPPFATGLPHYGHILAGTIKDIVTRYAHQSGFHVDRRFGWDCHGLPVEYEIDKTLGIRGPEDVAKMGITEYNNQCRAIVMRYSAEWKSTVSRLGRWIDFDNDYKTLYPQFMESVWWVFKQLYDKGLVYRGVKVMPFSTACNTPLSNFESHQNYKDVQDPSVFVTFPLEEDETVSLVAWTTTPWTLPSNLAVCVNPEMQYVKIKDVARGRLLILMEARLSALYKLESDYEILERFPGAYLKGKKYRPLFDYFLKCKENGAFTVLVDNYVKEEEGTGVVHQAPYFGAEDYRVCMDFNIIRKDSLPVCPVDASGCFTTEVTDFAGQYVKDADKSIIRTLKEQGRLLVATTFTHSYPFCWRSDTPLIYKAVPSWFVRVENMVDQLLRNNDLCYWVPELVREKRFGNWLKDARDWTISRNRYWGTPIPLWVSDDFEEVVCIGSVAELEELSGAKISDLHRESVDHLTIPSRCGKGSLHRISEVFDCWFESGSMPYAQVHYPFENKREFEDAFPADFIAEGIDQTRGWFYTLLVLATALFGQPPFKNVIVNGLVLASDGQKMSKRKKNYPDPVSIIQKYGADALRLYLINSPVVRAENLRFKEEGVRDVLKDVLLPWYNAYRFLIQNVLRLQKEEEIEFLYNENTVRESPNITDRWILSFMQSLIGFFETEMAAYRLYTVVPRLVKFVDILTNWYVRMNRRRLKGENGMEDCVMALETLFSVLLSLCRLMAPYTPFLTELMYQNLKVLIDPVSVQDKDTLSIHYLMLPRVREELIDKKTESAVSQMQSVIELGRVIRDRKTIPIKYPLKEIVVIHQDPEALKDIKSLEKYIIEELNVRKVTLSTDKNKYGIRLRAEPDHMVLGKRLKGAFKAVMTSIKQLSSEELEQFQKTGTIVVEGHELHDEDIRLMYTFDQATGGTAQFEAHSDAQALVLLDVTPDQSMVDEGMAREVINRIQKLRKKCNLVPTDEITVYYKAKSEGTYLNSVIESHTEFIFTTIKAPLKPYPVSPSDKVLIQEKTQLKGSELEITLTRGSSLPGPACAYVNLNICANGSEQGGVLLLENPKGDNRLDLLKLKSVVTSIFGVKNTELAVFHDETEIQNQTDLLSLSGKTLCVTAGSAPSLINSSSTLLCQYINLQLLNAKPQECLMGTVGTLLLENPLGQNGLTHQGLLYEAAKVFGLRSRKLKLFLNETQTQEITEDIPVKTLNMKTVYVSVLPTTADF | 0.645 | -0.1904
6 | sp¦Q15907¦RB11B_HUMAN (protein, UniProt Q15907 2-215, looked up) Ras-related protein Rab-11B: GTRDDEYDYLFKVVLIGDSGVGKSNLLSRFTRNEFNLESKSTIGVEFATRSIQVDGKTIKAQIWDTAGQERYRAITSAYYRGAVGALLVYDIAKHLTYENVERWLKELRDHADSNIVIMLVGNKSDLRHLRAVPTDEARAFAEKNNLSFIETSALDSTNVEEAFKNILTEIYRIVSQKQIADRAAHDESPGNNVVDISVPPTTDGQKPNKLQCC | 0.6332 | -0.1984
7 | sp¦P30048¦PRDX3_HUMAN (protein, UniProt P30048 62-256, looked up) Thioredoxin-dependent …: APAVTQHAPYFKGTAVVNGEFKDLSLDDFKGKYLVLFFYPLDFTFVCPTEIVAFSDKANEFHDVNCEVVAVSVDSHFSHLAWINTPRKNGGLGHMNIALLSDLTKQISRDYGVLLEGSGLALRGLFIIDPNGVIKHLSVNDLPVGRSVEETLRLVKAFQYVETHGEVCPANWTPDSPTIKPSPAASKEYFQKVNQ | 0.6339 | -0.198
8 | sp¦P20645¦MPRD_HUMAN (protein, UniProt P20645 27-277, looked up) Cation-dependent …: TEEKTCDLVGEKGKESEKELALVKRLKPLFNKSFESTVGQGSDTYIYIFRVCREAGNHTSGAGLVQINKSNGKETVVGRLNETHIFNGSNWIMLIYKGGDEYDNHCGKEQRRAVVMISCNRHTLADNFNPVSEERGKVQDCFYLFEMDSSLACSPEISHLSVGSILLVTFASLVAVYVVGGFLYQRLVVGAKGMEQFPHLAFWQDLGNLVADGCDFVCRSKPRNVPAAYRGVGDDQLGEESEERDDHLLPM | 0.6378 | -0.1953
